According to patent publication US20140105903A1 (Harvard, published 2014):

Legend:
[1] = target: ANG binding sites on ANG receptor expressing LNCaP cells; experiment: radio receptor assay, 125I-ANG on LNCaP cells at 4 C, Scatchard analysis
[2] = target: ANG binding sites on ANG receptor expressing LNCaP cells; experiment: radio receptor assay, 125I-ANG on LNCaP cells at 4 C, Scatchard analysis; second site
Angiogenin (human ANG) = target: T1, Angiogenin (human ANG) (human, UniProt P03950 25-147, iodine-125 label in the radio receptor assay; coupled to Sepharose in the affinity chromatography); experiment: method not named at this place; Example 4 names ELISA and equilibrium dialysis
T1 construct: also called free ANG
T1 sequence (P03950 25-147 limits assumed): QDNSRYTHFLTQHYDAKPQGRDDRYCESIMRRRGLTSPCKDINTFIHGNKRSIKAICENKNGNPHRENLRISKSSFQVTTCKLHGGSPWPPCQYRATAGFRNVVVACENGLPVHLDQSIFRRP

**Q.** For “Angiogenin (human ANG) (from UniProt P03950 25-147) (ligand)”, which Kd [1] is on record?
**A.** 0.45 nM

**Q.** What about the Kd [2] of the same molecule?
**A.** 170 nM

B1: Plexin B2 peptide GTSSEYDSILVEINKRVK (SEQ ID NO: 1) (peptide)
peptide: GTSSEYDSILVEINKRVK
notes: Chemically synthesized peptide from the region of Plexin B2 between residues 316 and 449
**Q.** Which Kd (Angiogenin (human ANG)) does the source give for B1 here?
**A.** 200 nM
